# B1: G1/S-specific cyclin-D3 (Homo sapiens), P30281 (parent)
# chain: MELLCCEGTRHAPRAGPDPRLLGDQRVLQSLLRLEERYVPRASYFQCVQREIKPHMRKMLAYWMLEVCEEQRCEEEVFPLAMNYLDRYLSCVPTRKAQLQLLGAVCMLLASKLRETTPLTIEKLCIYTDHAVSPRQLRDWEVLVLGKLKWDLAAVIAHDFLAFILHRLSLPRDRQALVKKHAQTFLALCATDYTFAMYPPSMIATGSIGAAVQGLGACSMSGDELTELLAGITGTEVDCLRACQEQIEAALRESLREASQTSSSPAPKAPRGSSSQGPSQTSTPTDVTAIHL
# B2: Segment polarity protein dishevelled homolog DVL-2 (Homo sapiens), O14641 (parent)
# chain: MAGSSTGGGGVGETKVIYHLDEEETPYLVKIPVPAERITLGDFKSVLQRPAGAKYFFKSMDQDFGVVKEEISDDNARLPCFNGRVVSWLVSSDNPQPEMAPPVHEPRAELAPPAPPLPPLPPERTSGIGDSRPPSFHPNVSSSHENLEPETETESVVSLRRERPRRRDSSEHGAGGHRTGGPSRLERHLAGYESSSTLMTSELESTSLGDSDEEDTMSRFSSSTEQSSASRLLKRHRRRRKQRPPRLERTSSFSSVTDSTMSLNIITVTLNMEKYNFLGISIVGQSNERGDGGIYIGSIMKGGAVAADGRIEPGDMLLQVNDMNFENMSNDDAVRVLRDIVHKPGPIVLTVAKCWDPSPQAYFTLPRNEPIQPIDPAAWVSHSAALTGTFPAYPGSSSMSTITSGSSLPDGCEGRGLSVHTDMASVTKAMAAPESGLEVRDRMWLKITIPNAFLGSDVVDWLYHHVEGFPERREARKYASGLLKAGLIRHTVNKITFSEQCYYVFGDLSGGCESYLVNLSLNDNDGSSGASDQDTLAPLPGATPWPLLPTFSYQYPAPHPYSPQPPPYHELSSYTYGGGSASSQHSEGSRSSGSTRSDGGAGRTGRPEERAPESKSGSGSESEPSSRGGSLRRGGEASGTSDGGPPPSRGSTGGAPNLRAHPGLHPYGPPPGMALPYNPMMVVMMPPPPPPVPPAVQPPGAPPVRDLGSVPPELTASRQSFHMAMGNPSEFFVDVM
# Variants of: B1
# Details: with cdk4_human CDK4, P11802
row,Variant,effect of a mutation on the interaction
1,MELLCCEGTRHAPRAGPDPRLLGDQRVLQSLLRLEERYVPRASYFQCVQREIKPHMRKMLAYWMLEVCEEQRCEEEVFPLAMNYLDRYLSCVPTRKAQLQLLGAVCMLLASKLRETTPLTIEKLCIYTDHAVSPRQLRDWEVLVLGKLKWDLAAVIAHDFLAFILHRLSLPRDRQALVKKHAQTFLALCATDYTFAMYPPSMIATGSIGAAVQGLGACSMSGDELTELLAGITGTEVDCLRACQEQIEAALRESLREAAQTSSSPAPKAPRGSSSQGPSQTSTPTDVTAIHL [S259A],with no effect
2,MELLCCEGTRHAPRAGPDPRLLGDQRVLQSLLRLEERYVPRASYFQCVQREIKPHMRKMLAYWMLEVCEEQRCEEEVFPLAMNYLDRYLSCVPTRKAQLQLLGAVCMLLASKLRETTPLTIEKLCIYTDHAVSPRQLRDWEVLVLGKLKWDLAAVIAHDFLAFILHRLSLPRDRQALVKKHAQTFLALCATDYTFAMYPPSMIATGSIGAAVQGLGACSMSGDELTELLAGITGTEVDCLRACQEQIEAALRESLREASQTSSSPVPKAPRGSSSQGPSQTSTPTDVTAIHL [A266V],with no effect

# Variants of: B1
# Details: with tfp11_human TFIP11, Q9UBB9
# tfp11_human TFIP11, Q9UBB9, sequence (Q9UBB9 whole entry): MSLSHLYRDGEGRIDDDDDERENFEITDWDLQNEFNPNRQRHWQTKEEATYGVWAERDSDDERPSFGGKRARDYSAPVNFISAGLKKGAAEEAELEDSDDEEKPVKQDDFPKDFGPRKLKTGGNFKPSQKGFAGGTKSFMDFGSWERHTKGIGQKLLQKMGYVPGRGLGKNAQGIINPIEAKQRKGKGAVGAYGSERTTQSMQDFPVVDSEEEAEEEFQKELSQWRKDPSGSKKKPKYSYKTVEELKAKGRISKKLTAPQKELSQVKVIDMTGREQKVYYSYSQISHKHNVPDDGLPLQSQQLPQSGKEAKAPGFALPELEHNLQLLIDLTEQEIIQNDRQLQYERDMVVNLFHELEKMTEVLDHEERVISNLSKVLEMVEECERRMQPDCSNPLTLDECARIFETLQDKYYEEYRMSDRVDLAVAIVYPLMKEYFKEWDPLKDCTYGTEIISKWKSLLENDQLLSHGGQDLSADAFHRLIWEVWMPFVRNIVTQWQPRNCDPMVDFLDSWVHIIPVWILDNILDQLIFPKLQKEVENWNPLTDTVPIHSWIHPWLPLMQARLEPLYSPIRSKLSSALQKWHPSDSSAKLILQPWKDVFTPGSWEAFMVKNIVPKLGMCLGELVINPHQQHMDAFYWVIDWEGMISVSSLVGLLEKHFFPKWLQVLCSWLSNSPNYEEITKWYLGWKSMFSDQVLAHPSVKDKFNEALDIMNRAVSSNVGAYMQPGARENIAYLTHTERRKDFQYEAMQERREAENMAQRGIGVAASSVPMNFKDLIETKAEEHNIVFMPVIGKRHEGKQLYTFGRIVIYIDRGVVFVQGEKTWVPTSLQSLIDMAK
row,Variant,effect of a mutation on the interaction
1,MELLCCEGTRHAPRAGPDPRLLGDQRVLQSLLRLEERYVPRASYFQCVQREIKPHMRKMLAYWMLEVCEEQRCEEEVFPLAMNYLDRYLSCVPTRKAQLQLLGAVCMLLASKLRETTPLTIEKLCIYTDHAVSPRQLRDWEVLVLGKLKWDLAAVIAHDFLAFILHRLSLPRDRQALVKKHAQTFLALCATDYTFAMYPPSMIATGSIGAAVQGLGACSMSGDELTELLAGITGTEVDCLRACQEQIEAALRESLREAAQTSSSPAPKAPRGSSSQGPSQTSTPTDVTAIHL [S259A],with no effect

# Variants of: B1
# Details: with cdk6_human CDK6, Q00534
# cdk6_human CDK6, Q00534, sequence (Q00534 whole entry): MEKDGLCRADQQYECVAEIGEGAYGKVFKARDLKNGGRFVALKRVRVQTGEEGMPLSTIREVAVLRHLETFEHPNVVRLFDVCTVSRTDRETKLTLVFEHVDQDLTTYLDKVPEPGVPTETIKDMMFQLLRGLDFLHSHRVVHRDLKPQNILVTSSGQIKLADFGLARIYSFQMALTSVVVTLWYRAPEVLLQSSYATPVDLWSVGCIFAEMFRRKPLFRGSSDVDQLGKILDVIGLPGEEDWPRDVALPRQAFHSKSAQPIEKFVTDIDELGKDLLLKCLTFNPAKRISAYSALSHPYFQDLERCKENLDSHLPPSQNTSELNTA
row,Variant,effect of a mutation on the interaction
1,MELLCCEGTRHAPRAGPDPRLLGDQRVLQSLLRLEERYVPRASYFQCVQREIKPHMRKMLAYWMLEVCEEQRCEEEVFPLAMNYLDRYLSCVPTRKAQLQLLGAVCMLLASKLRETTPLTIEKLCIYTDHAVSPRQLRDWEVLVLGKLKWDLAAVIAHDFLAFILHRLSLPRDRQALVKKHAQTFLALCATDYTFAMYPPSMIATGSIGAAVQGLGACSMSGDELTELLAGITGTEVDCLRACQEQIEAALRESLREASQTSSSPVPKAPRGSSSQGPSQTSTPTDVTAIHL [A266V],with no effect
2,MELLCCEGTRHAPRAGPDPRLLGDQRVLQSLLRLEERYVPRASYFQCVQREIKPHMRKMLAYWMLEVCEEQRCEEEVFPLAMNYLDRYLSCVPTRKAQLQLLGAVCMLLASKLRETTPLTIEKLCIYTDHAVSPRQLRDWEVLVLGKLKWDLAAVIAHDFLAFILHRLSLPRDRQALVKKHAQTFLALCATDYTFAMYPPSMIATGSIGAAVQGLGACSMSGDELTELLAGITGTEVDCLRACQEQIEAALRDSLREASQTSSSPAPKAPRGSSSQGPSQTSTPTDVTAIHL [E253D],with no effect

# Variants of: B1
# Details: with cdn1a_human CDKN1A
row,Variant,effect of a mutation on the interaction
1,MELLCCEGTRHAPRAGPDPRLLGDQRVLQSLLRLEERYVPRASYFQCVQREIKPHMRKMLAYWMLEVCEEQRCEEEVFPLAMNYLDRYLSCVPTRKAQLQLLGAVCMLLASKLRETTPLTIEKLCIYTDHAVSPRQLRDWEVLVLGKLKWDLAAVIAHDFLAFILHRLSLPRDRQALVKKHAQTFLALCATDYTFAMYPPSMIATGSIGAAVQGLGACSMSGDELTELLAGITGTEVDCLRACQEQIEAALRDSLREASQTSSSPAPKAPRGSSSQGPSQTSTPTDVTAIHL [E253D],with no effect

# Variants of: B2
# Details: with thap1_human THAP1, Q9NVV9
# thap1_human THAP1, Q9NVV9, sequence (Q9NVV9 whole entry): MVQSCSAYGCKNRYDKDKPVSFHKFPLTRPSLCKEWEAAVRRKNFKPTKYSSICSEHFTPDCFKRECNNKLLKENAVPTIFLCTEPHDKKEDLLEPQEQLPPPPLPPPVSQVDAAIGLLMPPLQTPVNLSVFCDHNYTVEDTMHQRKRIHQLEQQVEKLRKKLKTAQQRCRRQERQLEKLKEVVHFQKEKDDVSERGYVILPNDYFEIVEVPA
row,Variant,effect of a mutation on the interaction
1,A53V,with no effect

# Variants of: B2
# Details: with kc1e_human CSNK1E
row,Variant,effect of a mutation on the interaction
1,A53V,with no effect
